US20140348838A1 (AbbVie / Abbott, published 2014)
Positions count from the first letter of the chain named.

Key:
human IL-1α [1] = target: T1, human IL-1α (human, UniProt P01583 113-271, biotinylated in the ELISA (site not stated)); assay: Biacore (SPR), sequential injections on captured DVD-Ig: IL-1α as 2nd injection, after IL-1β
T1 construct: also called hIL-1α; Human mature IL-1α
T1 sequence: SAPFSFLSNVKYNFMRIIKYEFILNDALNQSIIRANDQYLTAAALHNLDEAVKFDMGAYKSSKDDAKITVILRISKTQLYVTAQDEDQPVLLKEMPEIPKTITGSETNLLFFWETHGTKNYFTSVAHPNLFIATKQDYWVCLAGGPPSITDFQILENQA

human IL-1α [2] = target: T1, human IL-1α; assay: SPR (Biacore), DVD-Ig captured, antigen in solution
cynomolgus IL-1α [3] = target: T2, cynomolgus IL-1α (cynomolgus, UniProt P79340 113-271); assay: as above
T2 construct: also called cyno IL-1α; Cyno IL-1α
T2 sequence (looked up): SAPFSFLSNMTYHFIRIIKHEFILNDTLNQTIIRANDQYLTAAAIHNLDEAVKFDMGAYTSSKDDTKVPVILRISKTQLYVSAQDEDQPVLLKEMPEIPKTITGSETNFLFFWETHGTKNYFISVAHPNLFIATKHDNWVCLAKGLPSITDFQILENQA

human IL-1α [4] = target: T1, human IL-1α; assay: ELISA: DVD-Ig captured on anti-human Fc, biotinylated antigen titrated
Method: (§1) To determine if the anti-IL-1β mAbs bind to human IL-1β, ELISA plates (Nunc, MaxiSorp, Rochester, N.Y.) were incubated overnight at 4° C. with anti-human Fc antibody diluted in Pierce Coat buffer at 2 μg/ml (Jackson Immunoresearch, West Grove, Pa.). Plates were washed five times in washing buffer (PBS containing 0.05% Tween 20), and blocked for 1 hour at 25° C. with 200 μl per well superblock blocking buffer (Thermo scientific, No. 37515). Blocking buffer was removed by tapping plates, and 2 μg/ml of each antibody in PBS containing 10% Superblock, 0.5% Tween-20 was added to the wells at 100 μl/well and incubated at 25° C. for 1 hour. The wells were washed five times in 1×PBST, and 1 μg/ml biotinylated antigen was titrated at 1:6 serial dilutions (for a range of μg to pg in PBS containing 10% Superblock, 0.05% Tween 20). Each dilution of antigen was then added to the plates and incubated for 1 hour at 25° C. […] The wells were washed five times in 1×PBST, and 100 μl of ULTRA-TMB ELISA (Pierce, Rockford, Ill.) were added per well. Following color development the reaction was stopped with 1N HCL and absorbance at 450 nm was measured.
(§2) IL-1β and IL-1α binding by IL-1β/α DVD-Ig binding proteins was assessed by ELISA (assay described above, Example 2.1).

human IL-1β [5] = target: T3, human IL-1β (human, UniProt P01584 117-269, biotinylated in the ELISA (site not stated)); assay: as above
T3 construct: also called hIL-1β; Human mature IL-1β
Method: as §1, §2

cynomolgus IL-1β [6] = target: T4, cynomolgus IL-1β (cynomolgus, UniProt P79182 117-268); assay: cell-based or functional assay
T4 sequence (looked up): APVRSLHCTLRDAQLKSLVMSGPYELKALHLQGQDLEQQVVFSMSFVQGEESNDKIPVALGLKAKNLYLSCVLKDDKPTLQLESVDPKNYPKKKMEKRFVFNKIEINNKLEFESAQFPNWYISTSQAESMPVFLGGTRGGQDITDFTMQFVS

human IL-1α [7] = target: T1, human IL-1α; assay: cell-based or functional assay
human IL-1β [8] = target: T3, human IL-1β; assay: cell-based or functional assay
cynomolgus IL-1α [9] = target: T2, cynomolgus IL-1α; assay: cell-based or functional assay
cynomolgus IL-1β [10] = target: T4, cynomolgus IL-1β; assay: SPR (Biacore), DVD-Ig captured, antigen in solution
human IL-1β [11] = target: T3, human IL-1β; assay: as above
human IL-1β [12] = target: T3, human IL-1β; assay: ELISA: antibody captured on anti-human Fc, biotinylated antigen titrated
Method: as §1

B1: E26.13-SS-X3 DVD-Ig (bispecific antibody, human IgG1, kappa, L234A L235A)
heavy: not shown
light: DIQMTQSPSSLSASVGDRVTITCRASGNIHNYLTWYQQTPGKAPKLLIYNAKTLADGVPSRFSGSGSGTDYTFTISSLQPEDIATYYCQHFWSIPYTFGQGTKLQITRTVAAPDIQMTQSPSSVSASVGDRVTITCRASQGISSWLAWYQQKPGKAPKLLIYEASNLETGVPSRFSGSGSGSDFTLTISSLQPEDFATYYCQQTSSFLLSFGGGTKVEHKRTVAAPSVFIFPPSDEQLKSGTASVVCLLNNFYPREAKVQWKVDNALQSGNSQESVTEQDSKDSTYSLSSTLTLSKADYEKHKVYACEVTHQGLSSPVTKSFNRGEC
notes: Dual variable domain immunoglobulin
Human IL-1α [1]
  stoichiometry: 1.6
Human IL-1α [2]
  Kd: 7.61 pM
Cynomolgus IL-1α [3]
  Kd: 4.11 nM

B2: E26.35-SS-X3 DVD-Ig (bispecific antibody, human IgG1, kappa, L234A L235A)
heavy: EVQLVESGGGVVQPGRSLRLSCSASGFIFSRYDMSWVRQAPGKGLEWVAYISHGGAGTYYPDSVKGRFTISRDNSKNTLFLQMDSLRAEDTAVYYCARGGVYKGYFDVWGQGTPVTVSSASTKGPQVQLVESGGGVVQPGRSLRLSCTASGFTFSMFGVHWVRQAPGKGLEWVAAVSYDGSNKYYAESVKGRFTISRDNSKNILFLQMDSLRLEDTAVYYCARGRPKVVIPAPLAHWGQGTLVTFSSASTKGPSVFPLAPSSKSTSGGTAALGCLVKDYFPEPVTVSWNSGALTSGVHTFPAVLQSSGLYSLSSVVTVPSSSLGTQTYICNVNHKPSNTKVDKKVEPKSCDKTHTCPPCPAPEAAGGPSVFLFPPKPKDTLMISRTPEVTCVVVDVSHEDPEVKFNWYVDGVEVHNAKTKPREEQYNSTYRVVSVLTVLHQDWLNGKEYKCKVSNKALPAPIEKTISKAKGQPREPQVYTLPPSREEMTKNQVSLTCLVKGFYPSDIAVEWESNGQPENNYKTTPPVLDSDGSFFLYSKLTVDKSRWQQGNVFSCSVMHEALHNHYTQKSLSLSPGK
light: B1 light
notes: as for B1
Human IL-1α [4]
  EC50: 6.2 pM
Human IL-1β [5]
  EC50: 8 pM
Cynomolgus IL-1β [6]
  Potency (pM): neutralization of IL-1-induced hIL-8 in MRC5 cells: 0.6 pM
Human IL-1α [7]
  Potency (pM): neutralization of IL-1-induced hIL-8 in MRC5 cells: 25.8 pM
Human IL-1β [8]
  Potency (pM): neutralization of IL-1-induced hIL-8 in MRC5 cells: 1.8 pM
Cynomolgus IL-1α [9]
  Potency (pM): neutralization of IL-1-induced hIL-8 in MRC5 cells: 474 pM
Cynomolgus IL-1β [10]
  Kd: 0.0106 nM
  koff: 1.94e-05 s⁻¹
  kon: 1.84e+06 M⁻¹ s⁻¹
Human IL-1α [2]
  Kd: 13.3 pM
  koff: 2.14e-06 s⁻¹
  kon: 162000 M⁻¹ s⁻¹
Human IL-1β [11]
  Kd: 5.03 pM
  koff: 6.81e-06 s⁻¹
  kon: 1.32e+06 M⁻¹ s⁻¹
Cynomolgus IL-1α [3]
  Kd: 3.27 nM
  koff: 0.000236 s⁻¹
  kon: 72400 M⁻¹ s⁻¹

B3: E26.35-SS-X3 JM DVD-Ig (bispecific antibody, human IgG1, kappa, L234A L235A)
heavy: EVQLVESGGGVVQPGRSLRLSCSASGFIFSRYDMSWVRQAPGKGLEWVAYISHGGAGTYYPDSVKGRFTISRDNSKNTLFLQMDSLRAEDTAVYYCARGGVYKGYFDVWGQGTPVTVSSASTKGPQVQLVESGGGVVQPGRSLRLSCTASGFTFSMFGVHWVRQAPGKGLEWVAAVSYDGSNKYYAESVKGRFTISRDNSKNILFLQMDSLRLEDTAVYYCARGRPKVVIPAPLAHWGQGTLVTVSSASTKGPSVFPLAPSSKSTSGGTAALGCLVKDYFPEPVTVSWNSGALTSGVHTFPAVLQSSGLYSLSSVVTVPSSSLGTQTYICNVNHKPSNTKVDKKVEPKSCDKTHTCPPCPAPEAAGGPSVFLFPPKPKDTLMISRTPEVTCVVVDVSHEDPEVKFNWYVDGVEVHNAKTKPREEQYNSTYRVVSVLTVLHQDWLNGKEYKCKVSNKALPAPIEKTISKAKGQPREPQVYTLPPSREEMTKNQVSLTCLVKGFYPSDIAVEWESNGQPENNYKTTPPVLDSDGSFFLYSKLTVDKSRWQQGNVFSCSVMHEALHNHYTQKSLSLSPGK
light: B1 light with H219I
notes: Dual variable domain immunoglobulin; X3 is mutated in the J-region (X3 JM)
Human IL-1α [4]
  EC50: 4 pM
Human IL-1β [5]
  EC50: 6.3 pM

B4: E26.13-SS-X3 JM DVD-Ig (bispecific antibody, human IgG1, kappa, L234A L235A)
heavy: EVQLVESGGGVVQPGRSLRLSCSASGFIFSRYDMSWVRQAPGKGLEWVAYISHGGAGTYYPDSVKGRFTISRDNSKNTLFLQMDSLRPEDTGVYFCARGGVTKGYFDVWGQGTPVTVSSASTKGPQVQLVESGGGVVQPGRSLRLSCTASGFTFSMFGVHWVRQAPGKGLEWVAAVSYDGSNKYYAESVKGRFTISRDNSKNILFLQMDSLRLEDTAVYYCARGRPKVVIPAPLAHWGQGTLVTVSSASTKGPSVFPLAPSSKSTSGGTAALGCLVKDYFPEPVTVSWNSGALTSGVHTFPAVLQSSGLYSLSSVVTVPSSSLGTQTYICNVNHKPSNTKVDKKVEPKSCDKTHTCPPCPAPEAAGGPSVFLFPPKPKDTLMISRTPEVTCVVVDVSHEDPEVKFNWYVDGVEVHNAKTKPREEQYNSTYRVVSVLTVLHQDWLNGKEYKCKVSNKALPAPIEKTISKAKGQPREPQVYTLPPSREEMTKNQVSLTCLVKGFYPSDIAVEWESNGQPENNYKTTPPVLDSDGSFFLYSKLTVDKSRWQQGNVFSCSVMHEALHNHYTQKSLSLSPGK
light: B1 light with H219I
notes: as for B3
Human IL-1α [4]
  EC50: 4.3 pM
Cynomolgus IL-1β [6]
  Potency (pM): neutralization of IL-1-induced hIL-8 in MRC5 cells: 17.6 pM
Human IL-1α [7]
  Potency (pM): neutralization of IL-1-induced hIL-8 in MRC5 cells: 26.5 pM
Cynomolgus IL-1α [9]
  Potency (pM): neutralization of IL-1-induced hIL-8 in MRC5 cells: 1880 pM

B5: X3-LL-E26.13 DVD-Ig (bispecific antibody, human IgG1, kappa, L234A L235A)
heavy: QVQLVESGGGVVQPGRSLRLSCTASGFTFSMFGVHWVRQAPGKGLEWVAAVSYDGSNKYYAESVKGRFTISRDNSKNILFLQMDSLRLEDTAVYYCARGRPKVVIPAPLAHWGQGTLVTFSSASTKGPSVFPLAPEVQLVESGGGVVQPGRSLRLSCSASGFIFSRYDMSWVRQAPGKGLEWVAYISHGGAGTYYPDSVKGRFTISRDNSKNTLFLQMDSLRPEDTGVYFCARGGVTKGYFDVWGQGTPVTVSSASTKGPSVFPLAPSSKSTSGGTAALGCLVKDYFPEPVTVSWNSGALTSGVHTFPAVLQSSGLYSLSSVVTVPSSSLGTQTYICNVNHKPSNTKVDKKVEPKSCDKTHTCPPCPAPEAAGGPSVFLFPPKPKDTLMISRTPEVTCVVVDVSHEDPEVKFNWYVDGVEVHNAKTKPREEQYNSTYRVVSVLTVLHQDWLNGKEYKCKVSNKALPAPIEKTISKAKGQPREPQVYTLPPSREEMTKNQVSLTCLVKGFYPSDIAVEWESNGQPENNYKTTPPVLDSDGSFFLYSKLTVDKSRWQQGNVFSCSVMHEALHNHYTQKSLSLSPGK
light: DIQMTQSPSSVSASVGDRVTITCRASQGISSWLAWYQQKPGKAPKLLIYEASNLETGVPSRFSGSGSGSDFTLTISSLQPEDFATYYCQQTSSFLLSFGGGTKVEHKRTVAAPSVFIFPPDIQMTQSPSSLSASVGDRVTITCRASGNIHNYLTWYQQTPGKAPKLLIYNAKTLADGVPSRFSGSGSGTDYTFTISSLQPEDIATYYCQHFWSIPYTFGQGTKLQITRTVAAPSVFIFPPSDEQLKSGTASVVCLLNNFYPREAKVQWKVDNALQSGNSQESVTEQDSKDSTYSLSSTLTLSKADYEKHKVYACEVTHQGLSSPVTKSFNRGEC
Human IL-1α [7]
  Potency (pM): neutralization of IL-1-induced hIL-8 in MRC5 cells: 8.9 pM
Human IL-1β [8]
  Potency (pM): neutralization of IL-1-induced hIL-8 in MRC5 cells: 1470 pM

B6: E26.13-LL-X3 DVD-Ig (bispecific antibody, human IgG1, kappa, L234A L235A)
heavy: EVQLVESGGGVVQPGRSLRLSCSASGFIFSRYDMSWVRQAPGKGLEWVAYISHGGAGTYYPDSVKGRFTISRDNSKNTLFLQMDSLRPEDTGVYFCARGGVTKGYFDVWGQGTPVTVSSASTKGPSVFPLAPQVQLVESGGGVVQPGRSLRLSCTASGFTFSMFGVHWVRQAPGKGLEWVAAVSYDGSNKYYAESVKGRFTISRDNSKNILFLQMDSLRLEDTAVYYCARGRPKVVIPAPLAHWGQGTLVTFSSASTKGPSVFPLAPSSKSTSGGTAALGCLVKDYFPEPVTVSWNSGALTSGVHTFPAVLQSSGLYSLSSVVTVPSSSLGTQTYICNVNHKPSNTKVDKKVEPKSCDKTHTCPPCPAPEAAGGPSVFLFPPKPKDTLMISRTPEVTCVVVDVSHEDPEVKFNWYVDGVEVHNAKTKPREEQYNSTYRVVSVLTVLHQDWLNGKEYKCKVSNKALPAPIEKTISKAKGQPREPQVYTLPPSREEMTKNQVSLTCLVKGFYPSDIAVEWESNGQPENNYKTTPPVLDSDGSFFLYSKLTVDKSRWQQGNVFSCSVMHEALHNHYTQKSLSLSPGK
light: DIQMTQSPSSLSASVGDRVTITCRASGNIHNYLTWYQQTPGKAPKLLIYNAKTLADGVPSRFSGSGSGTDYTFTISSLQPEDIATYYCQHFWSIPYTFGQGTKLQITRTVAAPSVFIFPPDIQMTQSPSSVSASVGDRVTITCRASQGISSWLAWYQQKPGKAPKLLIYEASNLETGVPSRFSGSGSGSDFTLTISSLQPEDFATYYCQQTSSFLLSFGGGTKVEHKRTVAAPSVFIFPPSDEQLKSGTASVVCLLNNFYPREAKVQWKVDNALQSGNSQESVTEQDSKDSTYSLSSTLTLSKADYEKHKVYACEVTHQGLSSPVTKSFNRGEC
notes: as for B1
Human IL-1α [4]
  EC50: 5.8 pM
Human IL-1α [7]
  Potency (pM): neutralization of IL-1-induced hIL-8 in MRC5 cells: 10.2 pM
Cynomolgus IL-1α [9]
  Potency (pM): neutralization of IL-1-induced hIL-8 in MRC5 cells: 1050 pM
Human IL-1α [2]
  Kd: 6.15 pM
  koff: 3.9e-06 s⁻¹
  kon: 646000 M⁻¹ s⁻¹
Cynomolgus IL-1α [3]
  Kd: 3.24 nM
  koff: 0.00105 s⁻¹
  kon: 315000 M⁻¹ s⁻¹

B7: X3-SS-E26.13 DVD-Ig (bispecific antibody, human IgG1, kappa, L234A L235A)
heavy: not shown
light: DIQMTQSPSSVSASVGDRVTITCRASQGISSWLAWYQQKPGKAPKLLIYEASNLETGVPSRFSGSGSGSDFTLTISSLQPEDFATYYCQQTSSFLLSFGGGTKVEHKRTVAAPDIQMTQSPSSLSASVGDRVTITCRASGNIHNYLTWYQQTPGKAPKLLIYNAKTLADGVPSRFSGSGSGTDYTFTISSLQPEDIATYYCQHFWSIPYTFGQGTKLQITRTVAAPSVFIFPPSDEQLKSGTASVVCLLNNFYPREAKVQWKVDNALQSGNSQESVTEQDSKDSTYSLSSTLTLSKADYEKHKVYACEVTHQGLSSPVTKSFNRGEC
notes: as for B1
Human IL-1α [4]
  EC50: 4.5 pM

B8: E26.11 (antibody, V domains shown)
VH: EVQLVESGGGVVQPGRSLRLSCSASGFIFSRYDMSWVRQAPGKGLEWVAYISHGGAGTYYPDSVKGRFTISRDNSKNTLFLQMDSLRPEDTAVYYCARGGVYKGYFDVWGQGTPVTVSS
VL: DIQMTQSPSSLSASVGDRVTITCRASGNIHNYLTWYQQTPGKAPKLLIYNAKTLADGVPSRFSGSGSGTDYTFTISSLQPEDIATYYCQHFWSIPYTFGQGTKLQIT
Human IL-1β [12]
  EC50: 0.014 nM
